Laboratory results from US20120034160A1 (AbbVie / Abbott, published 2012).
One block for each binder: values may come before it.

Columns and labels:
Recombinant Human IL-1β = Recombinant Human IL-1β (human, UniProt P01584 117-269); experiment: cell-based or functional assay
Recombinant Human IL-17 = target: T1, Recombinant Human IL-17 (human, UniProt Q16552 20-155, limits assumed); experiment: cell-based or functional assay
T1 sequence (looked up): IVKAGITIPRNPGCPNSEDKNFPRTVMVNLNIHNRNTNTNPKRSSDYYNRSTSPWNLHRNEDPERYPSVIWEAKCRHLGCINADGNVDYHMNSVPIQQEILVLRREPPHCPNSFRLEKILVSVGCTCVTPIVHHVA

C-Terminal VD IL-1β Neutralization Assay EC50 (Recombinant Human IL-1β): > 200 nM | N-terminal VD IL-17 Neutralization Assay EC50 (Recombinant Human IL-17): 0.0052 nM
B6: DVD1279 (bispecific antibody, human IgG1, kappa)
heavy: not shown
light: EIVLTQSPDFQSVTPKEKVTITCRASQDIGSELHWYQQKPDQPPKLLIKYASHSTSGVPSRFSGSGSGTDFTLTINGLEAEDAGTYYCHQTDSLPYTFGPGTKVDIKRTVAAPDTVVTQSPAFLSVTPGEKVTITCITSTDIDVDMNWYQQKPDQPPKLLISQGNTLRPGVPSRFSSSGSGTDFTFTISSLEAEDAATYYCLQSDNLPLTFGQGTKLEIKRTVAAPSVFIFPPSDEQLKSGTASVVCLLNNFYPREAKVQWKVDNALQSGNSQESVTEQDSKDSTYSLSSTLTLSKADYEKHKVYACEVTHQGLSSPVTKSFNRGEC

N-Terminal VD IL-1β Neutralization Assay EC50 (Recombinant Human IL-1β): 0.0091 nM | C-terminal VD IL-17 Neutralization Assay EC50 (Recombinant Human IL-17): > 20 nM
B9: DVD1282 (bispecific antibody, human IgG1, kappa)
heavy: not shown
light: DIQMTQSPSSLSASVGDRVTITCRASGNIHNYLTWYQQTPGKAPKLLIYNAKTLADGVPSRFSGSGSGTDYTFTISSLQPEDIATYYCQHFWSIPYTFGQGTKLQITRTVAAPEIVLTQSPDFQSVTPKEKVTITCRASQNIGSELHWYQQKPDQSPKLLIKYASHSISGVPSRFSGSGSGTDFTLTINGLEAEDAATYYCHQSDTLPHTFGQGTKVDIKRTVAAPSVFIFPPSDEQLKSGTASVVCLLNNFYPREAKVQWKVDNALQSGNSQESVTEQDSKDSTYSLSSTLTLSKADYEKHKVYACEVTHQGLSSPVTKSFNRGEC

C-Terminal VD IL-1β Neutralization Assay EC50 (Recombinant Human IL-1β): 7.61 nM | N-terminal VD IL-17 Neutralization Assay EC50 (Recombinant Human IL-17): 0.0238 nM
B10: DVD1283 (bispecific antibody, human IgG1, kappa)
heavy: not shown
light: EIVLTQSPDFQSVTPKEKVTITCRASQNIGSELHWYQQKPDQSPKLLIKYASHSISGVPSRFSGSGSGTDFTLTINGLEAEDAATYYCHQSDTLPHTFGQGTKVDIKRTVAAPDIQMTQSPSSLSASVGDRVTITCRASGNIHNYLTWYQQTPGKAPKLLIYNAKTLADGVPSRFSGSGSGTDYTFTISSLQPEDIATYYCQHFWSIPYTFGQGTKLQITRTVAAPSVFIFPPSDEQLKSGTASVVCLLNNFYPREAKVQWKVDNALQSGNSQESVTEQDSKDSTYSLSSTLTLSKADYEKHKVYACEVTHQGLSSPVTKSFNRGEC

C-Terminal VD IL-1β Neutralization Assay EC50 (Recombinant Human IL-1β): 1.27 nM | N-terminal VD IL-17 Neutralization Assay EC50 (Recombinant Human IL-17): 0.0021 nM
B12: DVD1285 (bispecific antibody, human IgG1, kappa)
heavy: not shown
light: EIVLTQSPDFQSVTPKEKVTITCRASQNIGSELHWYQQKPDQSPKLLIKYASHSISGVPSRFSGSGSGTDFTLTINGLEAEDAATYYCHQSDTLPHTFGQGTKVDIKRTVAAPDIQMTQSPSSLSASVGDRVTITCRASGNIHNYLTWYQQTPGKAPKLLIYNAKTLADGVPSRFSGSGSGTDYTFTISSLQPEDIATYYCQHFWSIPYTFGQGTKLQITRTVAAPSVFIFPPSDEQLKSGTASVVCLLNNFYPREAKVQWKVDNALQSGNSQESVTEQDSKDSTYSLSSTLTLSKADYEKHKVYACEVTHQGLSSPVTKSFNRGEC

N-Terminal VD IL-1β Neutralization Assay EC50 (Recombinant Human IL-1β): 0.212 nM | C-terminal VD IL-17 Neutralization Assay EC50 (Recombinant Human IL-17): 0.111 nM
B15: DVD1288 (bispecific antibody, human IgG1, kappa)
heavy: not shown
light: DTVVTQSPAFLSVTPGEKVTITCITSTDIDVDMNWYQQKPDQPPKLLISQGNTLRPGVPSRFSSSGSGTDFTFTISSLEAEDAATYYCLQSDNLPLTFGQGTKLEIKRTVAAPEIVLTQSPDFQSVTPKEKVTITCRASQNIGSELHWYQQKPDQSPKLLIKYASHSISGVPSRFSGSGSGTDFTLTINGLEAEDAATYYCHQSDTLPHTFGQGTKVDIKRTVAAPSVFIFPPSDEQLKSGTASVVCLLNNFYPREAKVQWKVDNALQSGNSQESVTEQDSKDSTYSLSSTLTLSKADYEKHKVYACEVTHQGLSSPVTKSFNRGEC

The remaining lines, values behind:

B1: DVD1274 (bispecific antibody, human IgG1, kappa)
heavy: not shown
light: DIQMTQSPSSLSASVGDRVTITCRASGNIHNYLTWYQQTPGKAPKLLIYNAKTLADGVPSRFSGSGSGTDYTFTISSLQPEDIATYYCQHFWSIPYTFGQGTKLQITRTVAAPEIVLTQSPDFQSVTPKEKVTITCRASQDIGSELHWYQQKPDQPPKLLIKYASHSTSGVPSRFSGSGSGTDFTLTINGLEAEDAGTYYCHQTDSLPYTFGPGTKVDIKRTVAAPSVFIFPPSDEQLKSGTASVVCLLNNFYPREAKVQWKVDNALQSGNSQESVTEQDSKDSTYSLSSTLTLSKADYEKHKVYACEVTHQGLSSPVTKSFNRGEC
N-Terminal VD IL-1β Neutralization Assay EC50 (Recombinant Human IL-1β): 0.0068 nM | C-terminal VD IL-17 Neutralization Assay EC50 (Recombinant Human IL-17): 1.08 nM

B2: DVD1275 (bispecific antibody, human IgG1, kappa)
heavy: not shown
light: EIVLTQSPDFQSVTPKEKVTITCRASQDIGSELHWYQQKPDQPPKLLIKYASHSTSGVPSRFSGSGSGTDFTLTINGLEAEDAGTYYCHQTDSLPYTFGPGTKVDIKRTVAAPDIQMTQSPSSLSASVGDRVTITCRASGNIHNYLTWYQQTPGKAPKLLIYNAKTLADGVPSRFSGSGSGTDYTFTISSLQPEDIATYYCQHFWSIPYTFGQGTKLQITRTVAAPSVFIFPPSDEQLKSGTASVVCLLNNFYPREAKVQWKVDNALQSGNSQESVTEQDSKDSTYSLSSTLTLSKADYEKHKVYACEVTHQGLSSPVTKSFNRGEC
C-Terminal VD IL-1β Neutralization Assay EC50 (Recombinant Human IL-1β): 1.92 nM | N-terminal VD IL-17 Neutralization Assay EC50 (Recombinant Human IL-17): 0.0006 nM

B3: DVD1276 (bispecific antibody, human IgG1, kappa)
heavy: not shown
light: DTQVTQSPSSLSASVGDRVTITCITSTDIDVDMNWYQQKPGKPPKLLISQGNTLRPGVPSRFSSSGSGTDFTFTISSLQPEDFATYYCLQSDNLPLTFGQGTKLEIKRTVAAPEIVLTQSPDFQSVTPKEKVTITCRASQDIGSELHWYQQKPDQPPKLLIKYASHSTSGVPSRFSGSGSGTDFTLTINGLEAEDAGTYYCHQTDSLPYTFGPGTKVDIKRTVAAPSVFIFPPSDEQLKSGTASVVCLLNNFYPREAKVQWKVDNALQSGNSQESVTEQDSKDSTYSLSSTLTLSKADYEKHKVYACEVTHQGLSSPVTKSFNRGEC
N-Terminal VD IL-1β Neutralization Assay EC50 (Recombinant Human IL-1β): 0.168 nM | C-terminal VD IL-17 Neutralization Assay EC50 (Recombinant Human IL-17): 1.21 nM

B4: DVD1277 (bispecific antibody, human IgG1, kappa)
heavy: not shown
light: EIVLTQSPDFQSVTPKEKVTITCRASQDIGSELHWYQQKPDQPPKLLIKYASHSTSGVPSRFSGSGSGTDFTLTINGLEAEDAGTYYCHQTDSLPYTFGPGTKVDIKRTVAAPDTQVTQSPSSLSASVGDRVTITCITSTDIDVDMNWYQQKPGKPPKLLISQGNTLRPGVPSRFSSSGSGTDFTFTISSLQPEDFATYYCLQSDNLPLTFGQGTKLEIKRTVAAPSVFIFPPSDEQLKSGTASVVCLLNNFYPREAKVQWKVDNALQSGNSQESVTEQDSKDSTYSLSSTLTLSKADYEKHKVYACEVTHQGLSSPVTKSFNRGEC
C-Terminal VD IL-1β Neutralization Assay EC50 (Recombinant Human IL-1β): > 20 nM | N-terminal VD IL-17 Neutralization Assay EC50 (Recombinant Human IL-17): 0.0092 nM

B5: DVD1278 (bispecific antibody, human IgG1, kappa)
heavy: not shown
light: DTVVTQSPAFLSVTPGEKVTITCITSTDIDVDMNWYQQKPDQPPKLLISQGNTLRPGVPSRFSSSGSGTDFTFTISSLEAEDAATYYCLQSDNLPLTFGQGTKLEIKRTVAAPEIVLTQSPDFQSVTPKEKVTITCRASQDIGSELHWYQQKPDQPPKLLIKYASHSTSGVPSRFSGSGSGTDFTLTINGLEAEDAGTYYCHQTDSLPYTFGPGTKVDIKRTVAAPSVFIFPPSDEQLKSGTASVVCLLNNFYPREAKVQWKVDNALQSGNSQESVTEQDSKDSTYSLSSTLTLSKADYEKHKVYACEVTHQGLSSPVTKSFNRGEC
N-Terminal VD IL-1β Neutralization Assay EC50 (Recombinant Human IL-1β): 0.145 nM | C-terminal VD IL-17 Neutralization Assay EC50 (Recombinant Human IL-17): 0.346 nM

B7: DVD1280 (bispecific antibody, human IgG1, kappa)
heavy: not shown
light: ETTVTQSPSSLSASVGDRVTITCITSTDIDVDMNWYQQKPGKPPKLLISQGNTLRPGVPSRFSSSGSGTDFTFTISSLQPEDFATYYCLQSDNLPLTFGQGTKLEIKRTVAAPEIVLTQSPDFQSVTPKEKVTITCRASQDIGSELHWYQQKPDQPPKLLIKYASHSTSGVPSRFSGSGSGTDFTLTINGLEAEDAGTYYCHQTDSLPYTFGPGTKVDIKRTVAAPSVFIFPPSDEQLKSGTASVVCLLNNFYPREAKVQWKVDNALQSGNSQESVTEQDSKDSTYSLSSTLTLSKADYEKHKVYACEVTHQGLSSPVTKSFNRGEC
N-Terminal VD IL-1β Neutralization Assay EC50 (Recombinant Human IL-1β): 0.149 nM | C-terminal VD IL-17 Neutralization Assay EC50 (Recombinant Human IL-17): 0.256 nM

B8: DVD1281 (bispecific antibody, human IgG1, kappa)
heavy: not shown
light: EIVLTQSPDFQSVTPKEKVTITCRASQDIGSELHWYQQKPDQPPKLLIKYASHSTSGVPSRFSGSGSGTDFTLTINGLEAEDAGTYYCHQTDSLPYTFGPGTKVDIKRTVAAPETTVTQSPSSLSASVGDRVTITCITSTDIDVDMNWYQQKPGKPPKLLISQGNTLRPGVPSRFSSSGSGTDFTFTISSLQPEDFATYYCLQSDNLPLTFGQGTKLEIKRTVAAPSVFIFPPSDEQLKSGTASVVCLLNNFYPREAKVQWKVDNALQSGNSQESVTEQDSKDSTYSLSSTLTLSKADYEKHKVYACEVTHQGLSSPVTKSFNRGEC
C-Terminal VD IL-1β Neutralization Assay EC50 (Recombinant Human IL-1β): > 150 nM | N-terminal VD IL-17 Neutralization Assay EC50 (Recombinant Human IL-17): 0.0027 nM

B11: DVD1284 (bispecific antibody, human IgG1, kappa)
heavy: not shown
light: DIQMTQSPSSLSASVGDRVTITCRASGNIHNYLTWYQQTPGKAPKLLIYNAKTLADGVPSRFSGSGSGTDYTFTISSLQPEDIATYYCQHFWSIPYTFGQGTKLQITRTVAAPEIVLTQSPDFQSVTPKEKVTITCRASQNIGSELHWYQQKPDQSPKLLIKYASHSISGVPSRFSGSGSGTDFTLTINGLEAEDAATYYCHQSDTLPHTFGQGTKVDIKRTVAAPSVFIFPPSDEQLKSGTASVVCLLNNFYPREAKVQWKVDNALQSGNSQESVTEQDSKDSTYSLSSTLTLSKADYEKHKVYACEVTHQGLSSPVTKSFNRGEC
N-Terminal VD IL-1β Neutralization Assay EC50 (Recombinant Human IL-1β): 0.0065 nM | C-terminal VD IL-17 Neutralization Assay EC50 (Recombinant Human IL-17): > 20 nM

B13: DVD1286 (bispecific antibody, human IgG1, kappa)
heavy: not shown
light: DTQVTQSPSSLSASVGDRVTITCITSTDIDVDMNWYQQKPGKPPKLLISQGNTLRPGVPSRFSSSGSGTDFTFTISSLQPEDFATYYCLQSDNLPLTFGQGTKLEIKRTVAAPEIVLTQSPDFQSVTPKEKVTITCRASQNIGSELHWYQQKPDQSPKLLIKYASHSISGVPSRFSGSGSGTDFTLTINGLEAEDAATYYCHQSDTLPHTFGQGTKVDIKRTVAAPSVFIFPPSDEQLKSGTASVVCLLNNFYPREAKVQWKVDNALQSGNSQESVTEQDSKDSTYSLSSTLTLSKADYEKHKVYACEVTHQGLSSPVTKSFNRGEC
N-Terminal VD IL-1β Neutralization Assay EC50 (Recombinant Human IL-1β): 0.165 nM | C-terminal VD IL-17 Neutralization Assay EC50 (Recombinant Human IL-17): 0.259 nM

B14: DVD1287 (bispecific antibody, human IgG1, kappa)
heavy: not shown
light: EIVLTQSPDFQSVTPKEKVTITCRASQNIGSELHWYQQKPDQSPKLLIKYASHSISGVPSRFSGSGSGTDFTLTINGLEAEDAATYYCHQSDTLPHTFGQGTKVDIKRTVAAPDTQVTQSPSSLSASVGDRVTITCITSTDIDVDMNWYQQKPGKPPKLLISQGNTLRPGVPSRFSSSGSGTDFTFTISSLQPEDFATYYCLQSDNLPLTFGQGTKLEIKRTVAAPSVFIFPPSDEQLKSGTASVVCLLNNFYPREAKVQWKVDNALQSGNSQESVTEQDSKDSTYSLSSTLTLSKADYEKHKVYACEVTHQGLSSPVTKSFNRGEC
C-Terminal VD IL-1β Neutralization Assay EC50 (Recombinant Human IL-1β): > 50 nM | N-terminal VD IL-17 Neutralization Assay EC50 (Recombinant Human IL-17): 0.0035 nM
